Assay: Nano-structure characterization of peptide conjugates (Tyndall effect, DLS, zeta potential, TEM)
Type: physicochemical
Details: 50 μM in H2O (2% DMSO), sonicated 10 min; mean of 3 measurements
Experimental: The second-order rate constant for the labeling reactions between tetrazine 1 and Cys was determined at 25 °C in PB (30% MeCN, 20 mM, pH 8.0) under second-order conditions using a 6000+ (Quawell) UV-Vis spectrophotometer. The concentrations of cysteine and tetrazine were identical. The specific difference in absorption wavelength (300 nm) between 1 and Cys-1 was measured over time. The second-order rate constant k2 was calculated from the slope of a plot of (1/c – 1/c0) versus time.
5. Competitive labeling reaction with other nucleophilic amino acids
For the competitive labeling experiment, 10 equiv. (2 mM) of N-Fmoc-Lys, N-Fmoc-Arg, Ser, Tyr, and 1.3 equiv. […] The resulting solution was maintained at 25 °C and monitored by LC –MS. […]
Each voTz analogue (1.1 equiv.) was added to a 0.25 mL vial containing solvent. […] The chromatogram peak areas of all relevant Cys -containing species were integrated, and the yiel d was determined using the following equation: Yield (%) = Iproduct/(Istarting + Iproduct + Ioxidation + Iside product) × 100, where Istarting, Iproduct, Ioxidation, and Iside product respectively represent the average ion counts of remaining starting material, product, oxidized starting material and any side product, if present 2. […]
DLS analyses and particle zeta potential values were determined using a Nano ZS ZEN 3690 instrument (Malvern […]

**Q.** With `COc1cccc2c1C(=O)c1c(O)c3c(c(O)c1C2=O)C[C@@](O)(C(=O)CO)C[C@@H]3O[C@H]1C[C@H](NC(=O)OCc2nnc(CCSC[C@@H]3NC(=O)[C@@H](Cc4ccc(O)cc4)NC(=O)[C@H](CC(=O)O)NC(=O)CNC(=O)[C@H](CCCNC(=N)N)NC3=O)nn2)[C@H](O)[C@H](C)O1` [RGD-Dox] as the compound, how does the “average particle diameter (DLS)” value read?
**A.** 168 nm

Source: PMC10987521, “An all-in-one tetrazine reagent for cysteine-selective labeling and bioorthogonal activable prodrug construction” (Nature Communications, 2024)
